# Results published in US20200277375A1 (ULTRAHUMAN FOUR, published 2020).
# Substitutions are numbered along the chain they refer to. In names and notes the source's numbering stands.
# T1: mouse CD47-Fc (mouse, UniProt Q61735 19-140, limits assumed)
# T1 construct: Recombinant CD47-Fc; also called mCD47-Fc; mCD37-Fc [sic]; not shown: Fc part
# T1 sequence (looked up): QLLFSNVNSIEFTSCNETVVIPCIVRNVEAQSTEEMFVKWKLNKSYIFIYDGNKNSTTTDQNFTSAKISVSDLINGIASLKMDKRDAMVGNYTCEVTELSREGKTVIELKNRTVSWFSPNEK
# B1: G-B6 in human IgG1null format (antibody, V domains shown)
# VH: EVQLVQSGAEVKKPGESLKISCKGSGYSFTNYYIFWVRQMPGKGLEWIGDINPVNGDTNFSPSFQGQVTISADKSISTAYLQWSSLKASDTAMYYCARGGYTMDKWGQGTLVTVSS
# VL: DIVMTQSPLSLPVTPGEPASISCRSSQSLVHSNGYTYLHWYLQKPGQSPQLLIYKGSYRASGVPDRFSGSGSGTDFTLKISRVEAEDVGVYYCSQNTQTPRTFGQGTKVEIK
# notes: IgG1null (L234A/L235A/G237A), kappa
# B2: A-D5.4 in human IgG1null format (antibody, V domains shown)
# VH: B1 VH with S28T, I48M, D50I, N55D, F60Y, S61N, K105R
# VL: B1 VL with V30L, T36N, G56V, Y58N, A60L, S94F, Q98H
# notes: Designer clone from A-D5; IgG1null; also called A-D.4
# B3: A-D5 in human IgG1null format (antibody, V domains shown)
# VH: B1 VH with S28T, I48M, D50I, N55D, F60Y, S61N, K105R
# VL: B1 VL with V30L, G56V, Y58N, A60L, S94F, Q98H
# notes: IgG1null (IgG1 L234A/L235A/G237A), kappa; also called IgG1 A-D5N
# B4: A-D5.2 in human IgG1null format (antibody, V domains shown)
# VH: B1 VH with I48M, D50I, N55D, N59R, F60Y, S61N, K105R
# VL: B1 VL with V30L, G56V, Y58N, A60L, S94F, Q98H
# notes: Designer clone from A-D5; IgG1null
# B5: A-D5.8 in human IgG1null format (antibody, V domains shown)
# VH: B1 VH with S28T, I48M, D50I, N55D, F60Y, S61N, K105R
# VL: B1 VL with V30L, N33Q, G56V, Y58N, A60L, S94F, Q98H
# notes: as for B4
# B6: D-H3 in human IgG1null format (antibody, V domains shown)
# VH: B1 VH with I48M, F60Y, M103P, K105Y
# VL: B1 VL with V30L, T36N, Y58N, A60F, T97L, Q98H, T99V
# notes: as for B1
# B7: F-E7 in human IgG1null format (antibody, V domains shown)
# VH: B1 VH with I48M, D50I, F60Y, S61N, D104G
# VL: B1 VL with Y35N, H39D, A60F, N96A, Q98H
# notes: as for B1
# B8: MH (Maximally Humanized) in human IgG1null format (antibody, V domains shown)
# VH: B1 VH with D50I, N55D, N59R, F60Y, K105I
# VL: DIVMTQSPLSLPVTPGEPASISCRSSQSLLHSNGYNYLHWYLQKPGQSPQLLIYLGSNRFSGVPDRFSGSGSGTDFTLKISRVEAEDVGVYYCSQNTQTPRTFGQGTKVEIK
# notes: Designer clone; IgG1null, kappa; also called designer clone MH
# Legend:
# human CD47-Fc [1] = biological target: T2, human CD47-Fc (human, UniProt Q08722 19-139); test: direct specificity ELISA, IgG 1 µg/ml, FIG. 5
# T2 construct: Recombinant CD47-Fc; also called hCD47-Fc; not shown: Fc part
# Excerpt: (§1) FIG. 5A-FIG. 5G. Binding specificity analyses for prioritized lead clones. Off-target homologue binding risk for mVH/mVL in IgG1 (FIG. 5A) and IgG1null (FIG. 5B) format and library-derived leads A-D5 (FIG. 5C), VH-A1/VL-B1 (FIG. 5D), F-E7 (FIG. 5E), D-H3 (FIG. 5F), and G-B6 (FIG. 5G) in IgG1null format was examined by direct ELISA on CD47-Fc orthologs and a panel of 14 human immunoglobulin superfamily proteins as labelled on each X-axis (“B” refers to blank). Binding to human, cyno and murine CD47-Fcs (h/c/mCD47-Fc) was performed at an IgG concentration of 1 μg/ml. Binding to all other proteins was performed at an IgG concentration of 10 μg/ml.
# (§2) To ensure that that lead clones had not suffered from loss of target specificity during the mutation and reselection process; lead and control IgG1 clones were tested for binding to a panel of 14 purified human proteins from the immunoglobulin superfamily (FIG. 5).
# mouse CD47-Fc [2] = biological target: T1, mouse CD47-Fc; test: direct specificity ELISA, IgG 1 µg/ml, FIG. 5
# Excerpt: as §1, §2
# [3] = biological target: T3, cynomolgus monkey CD47-Fc (cynomolgus monkey, UniProt A0A2K5X523 19-139); test: direct specificity ELISA, IgG 1 µg/ml, FIG. 5
# T3 construct: Recombinant CD47-Fc; also called cyno CD47-Fc; cCD47-Fc; not shown: Fc part
# Excerpt: as §1, §2
# [4] = biological target: T4, cynomolgus monkey CD47 on transfected CHO-K1 cells (cynomolgus monkey, UniProt A0A5F8AK49 19-323 (rhesus entry)); test: flow cytometry, cyno CD47-transfected CHO-K1, FIG. 6
# T4 construct: whole, on cells; also called cyno CD47+ cells
# Experimental: (§3) FIG. 6A-FIG. 6C. Flow cytometric binding to human and cyno CD47+CHO-K1 cells. Commercial anti-CD47 antibody MS1991, human IgG1 (“I IgG1”) and IgG4 (“I IgG4”) Isotype controls, lead library-derived IgGs in both IgG1null (“IgG1N”) and IgG4(S228P) formats were examined for specific binding on cyno-transfected CHO-K1 cells (FIG. 6A), human-transfected CHO-K1 cells (FIG. 6B), and wild type (wt, i.e. untransfected) CHO-K1 cells (FIG. 6C). IgGs were tested at concentrations ranging from 24-100,000 ng/ml. Concentration-dependent binding was observed against both human and cyno cell lines for all CD47-specific antibodies but not Isotype controls.
# (§4) Antibodies to CD47 were analysed for concentration-dependent binding at the cell surface via flow cytometry. CHO-K1 cells were stably transfected with either human, mouse or cyno CD47 full-length cDNAs. Anti-CD47 IgGs mVH/mVL, VH-A1/VL-B1, A-D5, G-B6, F-E7 and D-H3, and an isotype control IgG1 were then all tested in IgG1null and IgG4(S228P) formats, alongside a commercial mouse anti-human CD47 monoclonal MS1991, over a concentration range of 100,000-24 ng/ml for binding to human, cyno or wild type control (‘wt’, i.e. untransfected) CHO-K1.
# [5] = biological target: T5, human CD47 on cells (human CD47-transfected CHO-K1; HL60) (human, UniProt Q08722 19-323); test: flow cytometry, human CD47-transfected CHO-K1, FIG. 6
# T5 construct: whole, on cells; also called human CD47+ cells; human CD47+HL60 cells
# Experimental: as §3, §4
# human CD47-Fc [6] = biological target: T2, human CD47-Fc; test: direct specificity ELISA, IgG 10 µg/ml, FIG. 13
# mouse CD47-Fc [7] = biological target: T1, mouse CD47-Fc; test: direct specificity ELISA, IgG 10 µg/ml, FIG. 13
# [8] = biological target: T3, cynomolgus monkey CD47-Fc; test: direct specificity ELISA, IgG 10 µg/ml, FIG. 13
# human CD47-Fc [9] = biological target: T2, human CD47-Fc; test: direct titration ELISA, FIG. 9A
# Experimental: (§5) FIG. 9A-FIG. 9C. Direct titration ELISA for designer IgGs binding to human, mouse and cyno CD47-Fc proteins. Chimeric anti-CD47 (mVH/mVL), designer A-D5-derived clones in human IgG1null format were titrated (in μg/ml) in a direct binding ELISA against human (FIG. 9A), cyno (FIG. 9B) and mouse (FIG. 9C) CD47-Fc proteins. […] In the figure legend, “IgG1NI” refers to IgG1 null isotype.
# (§6) To coat Greiner Bio-One High bind ELISA plates, target proteins were diluted to 1 μg/ml in carbonate buffer and added at 100 μl per well, at 4° C., o/n. Coated plates were washed 3× with PBS pH7.4, blocked with 1% BSA in PBS (380 μl/well) for 1 hr at RT, then washed 3× with PBS-Tween 20 (PBST). CD47 antibodies (100 μl/well; diluted in PBST) were then added and then incubated 1 hr at RT. Plates were then washed 3× with PBST and goat anti-human kappa chain-HRP added (100 μl/well) at RT, for 1 hr. Plates were then washed 3× with PBST and twice with PBS before the addition of 100 μl TMB per well. Reactions were stopped by adding 100 μl 2M H₂SO₄/well and OD was read on a plate reader at 450 nm.
# mouse CD47-Fc [10] = biological target: T1, mouse CD47-Fc; test: direct titration ELISA, FIG. 9C
# Experimental: as §5, §6
# human CD47-Fc [11] = biological target: T2, human CD47-Fc; test: direct titration ELISA, FIG. 3
# Experimental: (§7) FIG. 3A-FIG. 3H. Direct titration ELISA for IgG binding to human, mouse and cyno CD47-Fc proteins. Chimeric anti-CD47 (mVH/mVL), library-derived clones in human IgG1 null format were titrated (in μg/ml) in a direct binding ELISA against human, mouse and cyno CD47-Fc proteins (FIG. 3A-FIG. 3H). […] Clone TTP lost almost all binding function.
# as §6
# mouse CD47-Fc [12] = biological target: T1, mouse CD47-Fc; test: direct titration ELISA, FIG. 3
# Experimental: as §7, §6
OD450 nm (human CD47-Fc [1]) [OD450 nm],OD450 nm (mouse CD47-Fc [2]) [OD450 nm],OD450 nm [3] [OD450 nm],"maximum MFI, fold over untransfected CHO-K1 [4] [fold]","maximum MFI, fold over untransfected CHO-K1 [5] [fold]",further results,Binder
> 2,> 1.25,> 2,> 10,> 10,–,B1
–,–,–,–,–,OD450 nm (human CD47-Fc [6]): > 2 OD450 nm; OD450 nm (mouse CD47-Fc [7]): > 2 OD450 nm; OD450 nm [8]: > 2 OD450 nm,B2
> 2,> 1.25,> 2,> 10,> 10,–,B3
–,–,–,–,–,binding result (human CD47-Fc [9]): binds; binding result (mouse CD47-Fc [10]): binds,B4
–,–,–,–,–,binding result (human CD47-Fc [9]): binds; binding result (mouse CD47-Fc [10]): binds,B5
> 2,> 1.25,> 2,> 10,> 10,–,B6
> 2,> 1.25,> 2,> 10,> 10,–,B7
–,–,–,–,–,binding result (human CD47-Fc [11]): binds; binding result (mouse CD47-Fc [12]): binds,B8
